In general, Kd refers to the equilibrium constant for the complex coming apart.

The values that follow come from publication PMC6778226 (Proceedings of the National Academy of Sciences of the …, 2019).

Experiment [1] addresses T1, voltage-dependent anion channel 1 (human, UniProt P21796 1-283, amine reactive RED-NHS NT-647 dye (for MST)). In words: MST.
Experiment [2] concerns the target T1, voltage-dependent anion channel 1. In words: MST. This is another data set of the same source.

Read-outs that look alike come from different tables or passages of the source.

T1 sequence (P21796 whole entry): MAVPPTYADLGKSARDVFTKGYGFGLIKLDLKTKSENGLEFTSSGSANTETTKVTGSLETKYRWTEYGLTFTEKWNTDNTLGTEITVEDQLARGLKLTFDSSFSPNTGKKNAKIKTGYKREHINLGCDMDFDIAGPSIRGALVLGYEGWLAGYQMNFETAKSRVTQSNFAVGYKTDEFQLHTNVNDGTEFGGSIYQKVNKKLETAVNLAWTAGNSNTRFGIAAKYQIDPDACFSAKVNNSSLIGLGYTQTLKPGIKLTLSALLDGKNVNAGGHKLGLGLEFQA

B1: mitoNEET (natural protein, human)
chain: RFYVKDHRNKAMINLHIQKDNPKIVHAFDMEDLGDKAVYCRCWRSKKFPFCDGAHTKHNEETGDNVGPLIIKKKET
As for B1, the Kd in experiment [1] stood at 210 ± 15 nM; in experiment [2] it was 76 ± 2 nM.
